Source: patent US20230322953A1 (HARBOUR BIOMED SHANGHAI, published 2023)
Each block holds one binder with its values, some of them ahead of it.

Key:
human BCMA [1] = target: T1, human BCMA (human, UniProt Q02223 1-184); test: FACS on HEK293T/hBCMA cells, Experiment 1
T1 construct: whole, on cells; also called hBCMA; TNFRSF17
T1 sequence (looked up): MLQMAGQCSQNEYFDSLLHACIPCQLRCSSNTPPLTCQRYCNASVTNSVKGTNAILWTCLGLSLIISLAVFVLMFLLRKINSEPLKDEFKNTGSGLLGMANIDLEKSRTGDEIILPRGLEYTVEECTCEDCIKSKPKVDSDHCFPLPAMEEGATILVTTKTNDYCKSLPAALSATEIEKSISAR

human BCMA [2] = target: T1, human BCMA; test: FACS on NCI-H929 cells
cynomolgus monkey BCMA = target: T2, cynomolgus monkey BCMA (cynomolgus monkey, UniProt A0A2K5UD97 1-183); test: FACS on HEK293T/cyno BCMA cells
T2 construct: whole, on cells; also called cyno BCMA

[3] = target: T3, human CTLA4 on CHO-K1/hCTLA4 cells (human, UniProt P16410 36-223); test: flow cytometry on CHO-K1/hCTLA4 cells, Experiment 3
T3 construct: whole, on cells; CHO-K1 cell line highly expressing human CTLA4; also called human CTLA4 cell

[4] = target: T3, human CTLA4 on CHO-K1/hCTLA4 cells; test: flow cytometry competition: biotinylated human B7-1-Fc on CHO-K1/hCTLA4 cells, Experiment 2
[5] = target: T4, human PD-L1 (programmed death ligand 1) (human, UniProt Q9NZQ7 19-290); test: flow cytometry (FACS) on CHO-K1/hPDL1 cells, Experiment 1
T4 construct: whole, on cells; also called hPDL1; CD274

[6] = target: T5, human 4-1BB (tumor necrosis factor receptor superfamily member 9) (human, UniProt Q07011 24-255); test: cell-based or functional assay
cynomolgus monkey 4-1BB = target: T6, cynomolgus monkey 4-1BB (cynomolgus monkey); test: flow cytometry (FACS) on CHO-K1/cyno 4-1BB cells, Experiment 1
T6 construct: whole, on cells; also called cyno 4-1BB

[7] = target: T5, human 4-1BB (tumor necrosis factor …); test: flow cytometry (FACS) on CHO-K1/hu 4-1BB cells

- EC50 (human BCMA [1]): 9.02 nM
- Maximum MFI (human BCMA [1]): 17600
- EC50 (human BCMA [2]): 50.2 nM
- Maximum MFI (cynomolgus monkey BCMA): 13800
B1: PR002929 (bispecific antibody, human IgG1, lambda, L234A L235A)
light: QAVVTQEPSLTVSPGGTVTLTCRSSTGAVTTSNYANWVQQKPGQAPRGLIGGTNKRAPWTPARFSGSLLGDKAALTLLGAQPEDEAEYFCALWYSNLWVFGGGTKLTVLGQPKAAPSVTLFPPSSEELQANKATLVCLISDFYPGAVTVAWKADSSPVKAGVETTTPSKQSNNKYAASSYLSLTPEQWKSHRSYSCQVTHEGSTVEKTVAPTECS
heavy: not shown
chain: EVQLVETGGGLIQPGGSLRLSCAASGFTVSDNYMTWVRQAPGKGLEWVSVIFSGGNTYYADSVKGRFTISRDNAKNTLYLQMNSLRAEDTALYYCARRNYDDTRGTDVFDIWGQGTMVTVSSASEPKSSDKTHTCPPCPAPEAAGGPSVFLFPPKPKDTLMISRTPEVTCVVVDVSHEDPEVKFNWYVDGVEVHNAKTKPREEQYNSTYRVVSVLTVLHQDWLNGKEYKCKVSNKALPAPIEKTISKAKGQPREPQVCTLPPSREEMTKNQVSLSCAVKGFYPSDIAVEWESNGQPENNYKTTPPVLDSDGSFFLVSKLTVDKSRWQQGNVFSCSVMHEALHNHYTQKSLSLSPGK

- EC50 (human BCMA [1]): 14.8 nM
- Maximum MFI (human BCMA [1]): 23900
- Maximum MFI (human BCMA [2]): 3840
- Maximum MFI (cynomolgus monkey BCMA): 22000
B2: PR002935 (bispecific antibody, human IgG1, lambda, L234A L235A)
light: QAVVTQEPSLTVSPGGTVTLTCRSSTGAVTTSNYANWVQQKPGQAPRGLIGGTNKRAPWTPARFSGSLLGDKAALTLLGAQPEDEAEYFCALWYSNLWVFGGGTKLTVLGQPKAAPSVTLFPPSSEELQANKATLVCLISDFYPGAVTVAWKADSSPVKAGVETTTPSKQSNNKYAASSYLSLTPEQWKSHRSYSCQVTHEGSTVEKTVAPTECS
heavy: not shown
chain: EVQLVETGGGLIQPGGSLRLSCAASGFTVSDNYMTWVRQAPGKGLEWVSVIFSGGNTYYADSVKGRFTISRDNAKNTLYLQMNSLRAEDTALYYCARRNYDDTRGTDVFDIWGQGTMVTVSSASEPKSSDKTHTCPPCPAPEAAGGPSVFLFPPKPKDTLMISRTPEVTCVVVDVSHEDPEVKFNWYVDGVEVHNAKTKPREEQYNSTYRVVSVLTVLHQDWLNGKEYKCKVSNKALPAPIEKTISKAKGQPREPQVCTLPPSREEMTKNQVSLSCAVKGFYPSDIAVEWESNGQPENNYKTTPPVLDSDGSFFLVSKLTVDKSRWQQGNVFSCSVMHEALHNHYTQKSLSLSPGK

- Maximum MFI (human BCMA [1]): 13400
- Maximum MFI (human BCMA [2]): 1840
- Maximum MFI (cynomolgus monkey BCMA): 9170
B3: PR001990 (bispecific antibody, human IgG1, lambda, L234A L235A)
light: QAVVTQEPSLTVSPGGTVTLTCRSSTGAVTTSNYANWVQQKPGQAPRGLIGGTNKRAPWTPARFSGSLLGDKAALTLLGAQPEDEAEYFCALWYSNLWVFGGGTKLTVLGQPKAAPSVTLFPPSSEELQANKATLVCLISDFYPGAVTVAWKADSSPVKAGVETTTPSKQSNNKYAASSYLSLTPEQWKSHRSYSCQVTHEGSTVEKTVAPTECS
heavy: EVQLLESGGGLVQPGGSLRLSCAASGFTFNTYAMNWVRQAPGKGLEWVSRIRSKYNNYATYYADSVKDRFTISRDDSKSTLYLQMNSLRAEDTAVYYCVRHGNFGNSYVSWFAYWGQGTLVTVSSASTKGPSVFPLAPSSKSTSGGTAALGCLVKDYFPEPVTVSWNSGALTSGVHTFPAVLQSSGLYSLSSVVTVPSSSLGTQTYICNVNHKPSNTKVDKKVEPKSCDKTHTCPPCPAPEAAGGPSVFLFPPKPKDTLMISRTPEVTCVVVDVSHEDPEVKFNWYVDGVEVHNAKTKPREEQYNSTYRVVSVLTVLHQDWLNGKEYKCKVSNKALGAPIEKTISKAKGQPREPQVYTLPPCREEMTKNQVSLWCLVKGFYPSDIAVEWESNGQPENNYKTTPPVLDSDGSFFLYSKLTVDKSRWQQGNVFSCSVMHEALHNHYTQKSLSLSPGK
chain: EVQLVETGGGLIQPGGSLRLSCAASGFTVSDNYMTWVRQAPGKGLEWVSVIFSGGNTYYADSVKGRFTISRDNAKNTLYLQMNSLRAEDTALYYCARRNYDDTRGTDVFDIWGQGTMVTVSSASEPKSSDKTHTCPPCPAPEAAGGPSVFLFPPKPKDTLMISRTPEVTCVVVDVSHEDPEVKFNWYVDGVEVHNAKTKPREEQYNSTYRVVSVLTVLHQDWLNGKEYKCKVSNKALGAPIEKTISKAKGQPREPQVCTLPPSREEMTKNQVSLSCAVKGFYPSDIAVEWESNGQPENNYKTTPPVLDSDGSFFLVSKLTVDKSRWQQGNVFSCSVMHEALHNHYTQKSLSLSPGK

- EC50 [3]: 2.79 nM
- IC50 [4]: 0.983 nM
B4: HER2xCTLA4 bispecific antibody molecule PR002672 (bispecific antibody, human IgG1)
chain 1: not shown
chain 2: not shown
chain 3: EVQLVESGGGLIQPGGSLRLSCAVSGFTVSKNYMSWVRQAPGKGLEWVSVVYSGGSKTYADSVKGRFTISRDNSKNTLYLQMNSLRAEDTAVYYCARAVPHSPSSFDIWGQGTMVTVSSGGGGSEVQLVESGGGLIQPGGSLRLSCAVSGFTVSKNYMSWVRQAPGKGLEWVSVVYSGGSKTYADSVKGRFTISRDNSKNTLYLQMNSLRAEDTAVYYCARAVPHSPSSFDIWGQGTMVTVSSEPKSSDKTHTCPPCPAPELLGGPDVFLFPPKPKDTLMISRTPEVTCVVVDVSHEDPEVKFNWYVDGVEVHNAKTKPREEQYNSTYRVVSVLTVLHQDWLNGKEYKCKVSNKALPAPEEKTISKAKGQPREPQVCTLPPSREEMTKNQVSLSCAVKGFYPSDIAVEWESNGQPENNYKTTPPVLDSDGSFFLVSKLTVDKSRWQQGNVFSCSVMHEALHNHYTQKSLSLSPGK
notes: Structure 18 Fab(cross Fd/LC)-Fc-VH-VH (trivalent asymmetric); PR000210 Fab, two PR000184 VH in tandem, linker GS_5

- EC50 (cynomolgus monkey 4-1BB): 1.86 nM
- Maximum MFI (cynomolgus monkey 4-1BB): 4980 MFI
B5: PR003549, PD-L1×4-1BB bispecific antibody molecule of IgG-VH tetravalent symmetric structure (bispecific antibody)
light: DIQMTQSPSTLSASVGDRVTVTCRASQSIYIWLAWYQQKPGKAPNLLIYKASSLETGVPSRFSGSGSGTEFTLTISSLQPDDFATYYCQQYYGSSRTFGQGTKVEIKRTVAAPSVFIFPPSDEQLKSGTASVVCLLNNFYPREAKVQWKVDNALQSGNSQESVTEQDSKDSTYSLSSTLTLSKADYEKHKVYACEVTHQGLSSPVTKSFNRGEC
heavy: EVQLVESGGGLVQPGGSLRLSCAASGFTFSSYWMSWVRQAPGKGLEWVANIKQEGSEKYYVDSVKGRFTISRDNAKNSLYLQMNSLRAEDTAVYYCARDRAVAGAFDIWGQGTMVTVSSASTKGPSVFPLAPSSKSTSGGTAALGCLVKDYFPEPVTVSWNSGALTSGVHTFPAVLQSSGLYSLSSVVTVPSSSLGTQTYICNVNHKPSNTKVDKKVEPKSCDKTHTCPPCPAPEAAGGPSVFLFPPKPKDTLMISRTPEVTCVVVDVSHEDPEVKFNWYVDGVEVHNAKTKPREEQYNSTYRVVSVLTVLHQDWLNGKEYKCKVSNKALGAPIEKTISKAKGQPREPQVYTLPPSREEMTKNQVSLTCLVKGFYPSDIAVEWESNGQPENNYKTTPPVLDSDGSFFLYSKLTVDKSRWQQGNVFSCSVMHEALHNHYTQKSLSLSPGEPKSSDKTHTPPPPPRTEVQLLESGGGLVQLGGSLRLSCAASGFTFSRYAMTWVRQAPEKGLEWVSSISGSGDDTYYGDSVKGRFTISRDNSQNTVYLQMNSLRAEDTAVYFCAKEKAGTTGDYYYNVDVWGQGTTVTVSS
notes: Structure 5; IgG PR000265, VH of PR001758 at C-terminus of heavy chain; linker H1_15-RT; human IgG1 (L234A, L235A, P329G)
- EC50 [5]: 1.56 nM
- Maximum MFI [5]: 2220 MFI
- IFN-γ EC50 (nM), T cells with MDA-MB-231 target cells [6]: 0.0695 nM
- IL-2 EC50 (nM), T cells with MDA-MB-231 target cells [6]: 0.12 nM
- EC50 [7]: 1.9 nM
- Maximum MFI [7]: 1550 MFI

- EC50 (cynomolgus monkey 4-1BB): 1.32 nM
- Maximum MFI (cynomolgus monkey 4-1BB): 5360 MFI
B6: PR003550, PD-L1×4-1BB bispecific antibody molecule of IgG-VH tetravalent symmetric structure (bispecific antibody)
light: DIQMTQSPSTLSASVGDRVTVTCRASQSIYIWLAWYQQKPGKAPNLLIYKASSLETGVPSRFSGSGSGTEFTLTISSLQPDDFATYYCQQYYGSSRTFGQGTKVEIKRTVAAPSVFIFPPSDEQLKSGTASVVCLLNNFYPREAKVQWKVDNALQSGNSQESVTEQDSKDSTYSLSSTLTLSKADYEKHKVYACEVTHQGLSSPVTKSFNRGEC
heavy: EVQLVESGGGLVQPGGSLRLSCAASGFTFSSYWMSWVRQAPGKGLEWVANIKQEGSEKYYVDSVKGRFTISRDNAKNSLYLQMNSLRAEDTAVYYCARDRAVAGAFDIWGQGTMVTVSSASTKGPSVFPLAPSSKSTSGGTAALGCLVKDYFPEPVTVSWNSGALTSGVHTFPAVLQSSGLYSLSSVVTVPSSSLGTQTYICNVNHKPSNTKVDKKVEPKSCDKTHTCPPCPAPEAAGGPSVFLFPPKPKDTLMISRTPEVTCVVVDVSHEDPEVKFNWYVDGVEVHNAKTKPREEQYNSTYRVVSVLTVLHQDWLNGKEYKCKVSNKALGAPIEKTISKAKGQPREPQVYTLPPSREEMTKNQVSLTCLVKGFYPSDIAVEWESNGQPENNYKTTPPVLDSDGSFFLYSKLTVDKSRWQQGNVFSCSVMHEALHNHYTQKSLSLSPGEPKSSDKTHTPPPPPRTEVQLVESGGGVVQPGGSLRLSCAASGFTFSNYAMTWVRQAPEKGLEWVSSISGSGVSTYYADSVKGRFTISRDNSKNTLYLQMTRLTAEDTAVYFCAKEGSSETDDHYYNVDVWGQGTTVTVSS
notes: Structure 5; IgG PR000265, VH of PR001760 at C-terminus of heavy chain; linker H1_15-RT; human IgG1 (L234A, L235A, P329G)
- EC50 [5]: 1.11 nM
- Maximum MFI [5]: 2250 MFI

B7: Anti-4-1BB monoclonal antibody urelumab analog, hIgG4 (S228P) (antibody, V domains shown)
VH: QVQLQQWGAGLLKPSETLSLTCAVYGGSFSGYYWSWIRQSPEKGLEWIGEINHGGYVTYNPSLESRVTISVDTSKNQFSLKLSSVTAADTAVYYCARDYGPGNYDWYFDLWGRGTLVTVSS
VL: EIVLTQSPATLSLSPGERATLSCRASQSVSSYLAWYQQKPGQAPRLLIYDASNRATGIPARFSGSGSGTDFTLTISSLEPEDFAVYYCQQRSNWPPALTFGGGTKVEIKR
- IFN-γ EC50 (nM), T cells with MDA-MB-231 target cells [6]: 0.536 nM
- IL-2 EC50 (nM), T cells with MDA-MB-231 target cells [6]: 2.94 nM
